Laboratory results published in US20200157190A1.

Assays:
[1] = target: Antigen 2; test: ELISA, supernatant 1 TO 64, Plate 2 (Antigen 2), column 6, BLANK 0.06
[2] = target: Antigen 1; test: ELISA, supernatant 1 TO 4096, Plate 1 (Antigen 1), column 6, BLANK 0.07
[3] = target: Antigen 2; test: ELISA, supernatant 1 TO 1024, Plate 2 (Antigen 2), column 6, BLANK 0.06
[4] = target: Antigen 1; test: ELISA, supernatant UNDILUTED, Plate 1 (Antigen 1), column 6, BLANK 0.07
[5] = target: Antigen 2; test: ELISA, supernatant 1 TO 4096, Plate 2 (Antigen 2), column 6, BLANK 0.06
[6] = target: Antigen 1; test: ELISA, supernatant 1 TO 1024, Plate 1 (Antigen 1), column 6, BLANK 0.07
[7] = target: Antigen 2; test: ELISA, supernatant 1 TO 256, Plate 2 (Antigen 2), column 6, BLANK 0.06
[8] = target: Antigen 2; test: ELISA, supernatant UNDILUTED, Plate 2 (Antigen 2), column 6, BLANK 0.06
[9] = target: Antigen 1; test: ELISA, supernatant 1 TO 4, Plate 1 (Antigen 1), column 6, BLANK 0.07
[10] = target: Antigen 1; test: ELISA, supernatant 1 TO 64, Plate 1 (Antigen 1), column 6, BLANK 0.07
[11] = target: Antigen 1; test: ELISA, supernatant 1 TO 16, Plate 1 (Antigen 1), column 6, BLANK 0.07
[12] = target: Antigen 1; test: ELISA, supernatant 1 TO 256, Plate 1 (Antigen 1), column 6, BLANK 0.07
[13] = target: Antigen 2; test: ELISA, supernatant 1 TO 4, Plate 2 (Antigen 2), column 6, BLANK 0.06
[14] = target: Antigen 2; test: ELISA, supernatant 1 TO 16, Plate 2 (Antigen 2), column 6, BLANK 0.06
[15] = target: Antigen 1; test: ELISA, supernatant 1 TO 1024, Plate 1 (Antigen 1), column 8, BLANK 0.07
[16] = target: Antigen 2; test: ELISA, supernatant UNDILUTED, Plate 2 (Antigen 2), column 8, BLANK 0.07
[17] = target: Antigen 2; test: ELISA, supernatant 1 TO 64, Plate 2 (Antigen 2), column 8, BLANK 0.07
[18] = target: Antigen 1; test: ELISA, supernatant 1 TO 4, Plate 1 (Antigen 1), column 8, BLANK 0.07
[19] = target: Antigen 1; test: ELISA, supernatant 1 TO 256, Plate 1 (Antigen 1), column 8, BLANK 0.07
[20] = target: Antigen 2; test: ELISA, supernatant 1 TO 4, Plate 2 (Antigen 2), column 8, BLANK 0.07
[21] = target: Antigen 1; test: ELISA, supernatant 1 TO 16, Plate 1 (Antigen 1), column 8, BLANK 0.07
[22] = target: Antigen 1; test: ELISA, supernatant 1 TO 64, Plate 1 (Antigen 1), column 8, BLANK 0.07
[23] = target: Antigen 1; test: ELISA, supernatant UNDILUTED, Plate 1 (Antigen 1), column 8, BLANK 0.07
[24] = target: Antigen 2; test: ELISA, supernatant 1 TO 4096, Plate 2 (Antigen 2), column 8, BLANK 0.07
[25] = target: Antigen 2; test: ELISA, supernatant 1 TO 1024, Plate 2 (Antigen 2), column 8, BLANK 0.07
[26] = target: Antigen 2; test: ELISA, supernatant 1 TO 16, Plate 2 (Antigen 2), column 8, BLANK 0.07
[27] = target: Antigen 2; test: ELISA, supernatant 1 TO 256, Plate 2 (Antigen 2), column 8, BLANK 0.07
[28] = target: Antigen 1; test: ELISA, supernatant 1 TO 4096, Plate 1 (Antigen 1), column 8, BLANK 0.07
[29] = target: Antigen 2; test: ELISA, supernatant 1 TO 4, Plate 2 (Antigen 2), column 10, BLANK 0.07
[30] = target: Antigen 2; test: ELISA, supernatant 1 TO 16, Plate 2 (Antigen 2), column 10, BLANK 0.07
[31] = target: Antigen 2; test: ELISA, supernatant 1 TO 4096, Plate 2 (Antigen 2), column 10, BLANK 0.07
[32] = target: Antigen 2; test: ELISA, supernatant UNDILUTED, Plate 2 (Antigen 2), column 10, BLANK 0.07
[33] = target: Antigen 1; test: ELISA, supernatant 1 TO 64, Plate 1 (Antigen 1), column 10, BLANK 0.07
[34] = target: Antigen 1; test: ELISA, supernatant UNDILUTED, Plate 1 (Antigen 1), column 10, BLANK 0.07
[35] = target: Antigen 1; test: ELISA, supernatant 1 TO 1024, Plate 1 (Antigen 1), column 10, BLANK 0.07
[36] = target: Antigen 2; test: ELISA, supernatant 1 TO 256, Plate 2 (Antigen 2), column 10, BLANK 0.07
[37] = target: Antigen 1; test: ELISA, supernatant 1 TO 4, Plate 1 (Antigen 1), column 10, BLANK 0.07
[38] = target: Antigen 2; test: ELISA, supernatant 1 TO 1024, Plate 2 (Antigen 2), column 10, BLANK 0.07
[39] = target: Antigen 2; test: ELISA, supernatant 1 TO 64, Plate 2 (Antigen 2), column 10, BLANK 0.07
[40] = target: Antigen 1; test: ELISA, supernatant 1 TO 256, Plate 1 (Antigen 1), column 10, BLANK 0.07
[41] = target: Antigen 1; test: ELISA, supernatant 1 TO 16, Plate 1 (Antigen 1), column 10, BLANK 0.07
[42] = target: Antigen 1; test: ELISA, supernatant 1 TO 4096, Plate 1 (Antigen 1), column 10, BLANK 0.07

B1: Heavy Chain Construct 3 with Light Chain Construct 2 (VH1-VH2/VL2) (antibody)
heavy: QSVEESGGRLVTPGTPLTLTCTVSGFSLNTNAIRWVRQAPGKGLEWIGAIDASGNTYYASWAKGRFTISKTSTTVDLKITSPTTEDTATYFCNRFNTANIWGPGTLVTVSSGQPKAPSVFPLAPCCGDTPSSTVTLGCLVKGYLPEPVTVTWNSGTLTNGVRTFPSVRQSSGLYSLSSVVSVTSSSQPVTCNVAHPATNTKVDKTVAPSTCSKPMCPPPELLGGRPQPQPQPQPQPQPQPQPQPQPQPQPQPQPQPQSRQSLEESGGRLVSPGTPLTLTCTASGFSLSSNAMGWVRQAPGEGLEYIGIIRPGGSTYYASWAKGRFTISKTSSTTVDLKMTSLTTEDTATYFCARAWDIWGPGTLVTVSLGQPKAPSVFPLAPCCGDTPSSTVTLGCLVKGYLPEPVTVTWNSGTLTNGVRTFPSVRQSSGLYSLSSVVSVTSSSQPVTCNVAHPATNTKVDKTVAPSTCSKPTCPPPELLGGPSVFIFPPKPKDTLMISRTPEVTCVVVDVSQDDPEVQFTWYINNEQVRTARPPLREQQFNSTIRVVSTLPIAHQDWLRGKEFKCKVHNKALPAPIEKTISKARGQPLEPKVYTMGPPREELSSRSVSLACMINGFYPSDISVEWEKNGKAEDNYKTTPAVLDSDGSYFLYSKLSVPTSEWQRGDVFTCSVMHEALHNHYTQKSISRSPGK
light: AFELTQTPSSVEAAVGGTVTIRCQASQSISNQLSWYQQKPGQPPKRLIYRASTLASGVPARFKGSGSGTAFTLTISDLECADGATYYCQSFYYTDVIDYNAFGGGTEVVVTGDPVAPTVLIFPPAADQVATGTVTIVCVANKYFPDVTVTWEVDGTTQTTGIENSKTPQNSADCTYNLSSTLTLTSTQYNSHKEYTCKVTQGTTSVVQSFNRGDC
ELISA plate reading [1]: 0.26
ELISA plate reading [2]: 0.06
ELISA plate reading [3]: 0.08
ELISA plate reading [4]: 0.22
ELISA plate reading [5]: 0.06
ELISA plate reading [6]: 0.06
ELISA plate reading [7]: 0.11
ELISA plate reading [8]: 2.04
ELISA plate reading [9]: 0.11
ELISA plate reading [10]: 0.09
ELISA plate reading [11]: 0.07
ELISA plate reading [12]: 0.06
ELISA plate reading [13]: 1.4
ELISA plate reading [14]: 0.67

B2: VH2-VH2 / VL2 (antibody)
heavy chain (VH2-CH1, PQ linker, VH2-CH1, hinge, CH2, CH3): QSLEESGGRLVSPGTPLTLTCTASGFSLSSNAMGWVRQAPGEGLEYIGIIRPGGSTYYASWAKGRFTISKTSSTTVDLKMTSLTTEDTATYFCARAWDIWGPGTLVTVSLGQPKAPSVFPLAPCCGDTPSSTVTLGCLVKGYLPEPVTVTWNSGTLTNGVRTFPSVRQSSGLYSLSSVVSVTSSSQPVTCNVAHPATNTKVDKTVAPSTCSKPTCPPPELLGGRPQPQPQPQPQPQPQPQPQPQPQPQPQPQPQPQSRQSLEESGGRLVSPGTPLTLTCTASGFSLSSNAMGWVRQAPGEGLEYIGIIRPGGSTYYASWAKGRFTISKTSSTTVDLKMTSLTTEDTATYFCARAWDIWGPGTLVTVSLGQPKAPSVFPLAPCCGDTPSSTVTLGCLVKGYLPEPVTVTWNSGTLTNGVRTFPSVRQSSGLYSLSSVVSVTSSSQPVTCNVAHPATNTKVDKTVAPSTCSKPTCPPPELLGGPSVFIFPPKPKDTLMISRTPEVTCVVVDVSQDDPEVQFTWYINNEQVRTARPPLREQQFNSTIRVVSTLPIAHQDWLRGKEFKCKVHNKALPAPIEKTISKARGQPLEPKVYTMGPPREELSSRSVSLACMINGFYPSDISVEWEKNGKAEDNYKTTPAVLDSDGSYFLYSKLSVPTSEWQRGDVFTCSVMHEALHNHYTQKSISRSPGK
light chain: B1 light
ELISA plate reading [15]: 0.08
ELISA plate reading [16]: 2.28
ELISA plate reading [17]: 2.1
ELISA plate reading [18]: 0.12
ELISA plate reading [19]: 0.06
ELISA plate reading [20]: 2.12
ELISA plate reading [21]: 0.16
ELISA plate reading [22]: 0.01
ELISA plate reading [23]: 0.15
ELISA plate reading [24]: 0.33
ELISA plate reading [25]: 0.68
ELISA plate reading [26]: 2.14
ELISA plate reading [27]: 1.47
ELISA plate reading [28]: 0.07

B3: Original Heavy Chain (VH2) and Light Chain (VL2) that recognizes Antigen 2 (antibody, V domains shown)
VH: QSLEESGGRLVSPGTPLTLTCTASGFSLSSNAMGWVRQAPGEGLEYIGIIRPGGSTYYASWAKGRFTISKTSSTTVDLKMTSLTTEDTATYFCARAWDIWGPG
VL: AFELTQTPSSVEAAVGGTVTIRCQASQSISNQLSWYQQKPGQPPKRLIYRASTLASGVPARFKGSGSGTAFTLTISDLECADGATYYCQSFYYTDVIDYNAFGGGTEVVVTG
ELISA plate reading [29]: 2.38
ELISA plate reading [30]: 2.24
ELISA plate reading [31]: 0.39
ELISA plate reading [32]: 2.27
ELISA plate reading [33]: 0.08
ELISA plate reading [34]: 0.09
ELISA plate reading [35]: 0.1
ELISA plate reading [36]: 1.68
ELISA plate reading [37]: 0.12
ELISA plate reading [38]: 0.94
ELISA plate reading [39]: 2.19
ELISA plate reading [40]: 0.08
ELISA plate reading [41]: 0.08
ELISA plate reading [42]: 0.08
